According to patent US20120045393A1 (priority 2009, published 2012):
Non-standard residues stand in square brackets, D forms with d. *: point of attachment. d1Nal = N[C@H](Cc1cccc2ccccc12)C(=O)O; d2Nal = N[C@H](Cc1ccc2ccccc2c1)C(=O)O; d3Pal = N[C@H](Cc1cccnc1)C(=O)O; DO3A10CM = not defined here; Nicotinoyl = O=C(c1cccnc1)*; dCfe4 = not defined here; azaGly = NNC(=O)O; Sar = CNCC(=O)O; iPr = CC(C)*

B1: BRU-3073 (peptide)
peptide: XRWSHXWXPP
modifications: as printed: Sar-R-W-S-H-Darg-W-Bpa4-P-P-Az23po-Da15o3pt-DO3A10CM (C-terminal chelator)
B2: ^177Lu-BRU-2440 (peptide)
peptide: DO3A10CM-[Sar]HWSH[dR]WYP[azaGly]-NH2
modifications: reading uncertain; also: 177Lu complexed by DO3A10CM, printed as 177Lu-DO3A10CM-Sar-His-Trp-Ser-His-Darg-Trp-Tyr-Pro-azaGly-NH2
B3: ^177Lu-BRU-2443 (peptide)
peptide: XHWSHXWXPX
modifications: 177Lu held by the N-terminal DO3A10CM: 177Lu-DO3A10CM-Sar-His-Trp-Ser-His-Darg-Trp-Bpa4-Pro-azaGly-NH2
B4: ^177Lu-BRU-2613 (peptide)
peptide: DO3A10CM-G[Sar][dCfe4][d1Nal]S[Metyr][dK](Nicotinoyl)LK(iPr)P[dA]-NH2
modifications: reading uncertain; also: 177Lu complexed by DO3A10CM, printed as 177Lu-DO3A10CM-Gly-Sar-Dcfe4-Dnal1-Ser-Metyr-Dlys(Nic)-Leu-Lys(isp)-Pro-Dala-NH2
B5: ^177Lu-BRU-2624 (peptide)
peptide: XHWSHXWXPX
modifications: 177Lu held by the N-terminal DO3A10CM: 177Lu-DO3A10CM-Sar-His-Trp-Ser-His-Darg-Trp-Nal2-Pro-azaGly-NH2
B6: ^177Lu-BRU-2644 (peptide)
peptide: DO3A10CM-G[d2Nal][dCfe4][d3Pal]SH[dR]WYP[dA]-NH2
modifications: reading uncertain; also: 177Lu complexed by DO3A10CM, printed as 177Lu-DO3A10CM-Gly-Dnal2-Dcfe4-Dpal3-Ser-His-Darg-Trp-Tyr-Pro-Dala-NH2
B7: ^177Lu-BRU-2696 (peptide)
peptide: XXHWSHXWXPX
modifications: 177Lu held by the N-terminal DO3A10CM: 177Lu-DO3A10CM-Gly-Abz4-Sar-His-Trp-Ser-His-Darg-Trp-Bpa4-Pro-azaGly-NH2
B8: ^177Lu-BRU-2721 (peptide)
peptide: XHWSHXWXPX
modifications: 177Lu held by the N-terminal DO3A10CM: 177Lu-DO3A10CM-Sar-His-Trp-Ser-His-Darg-Trp-Dip-Pro-azaGly-NH2
B9: ^177Lu-BRU-2722 (peptide)
peptide: XHWSHXWXPX
modifications: 177Lu held by the N-terminal DO3A10CM: 177Lu-DO3A10CM-Sar-His-Trp-Ser-His-Darg-Trp-F5fe-Pro-azaGly-NH2
B10: ^177Lu-BRU-2725 (peptide)
peptide: XHWSHXWXPX
modifications: 177Lu held by the N-terminal DO3A10CM: 177Lu-DO3A10CM-Sar-His-Trp-Ser-His-Darg-Trp-Cfe4-Pro-azaGly-NH2
B11: ^177Lu-BRU-2736 (peptide)
peptide: XHWSHXWXPX
modifications: 177Lu held by the N-terminal DO3A10CM: 177Lu-DO3A10CM-Meala-His-Trp-Ser-His-Darg-Trp-Bpa4-Pro-azaGly-NH2
B12: ^177Lu-BRU-2738 (peptide)
peptide: XFWSHXWXPX
modifications: 177Lu held by the N-terminal DO3A10CM: 177Lu-DO3A10CM-Sar-Phe-Trp-Ser-His-Darg-Trp-Bpa4-Pro-azaGly-NH2

Experiments:
[1] = target: LHRH receptor (LHRH binding sites) on EFO-27 human ovarian cancer cells (human); test: competition with [125I-Tyr8]BRU-2477, EFO-27 cells
[2] = target: LHRH receptor (LHRH binding sites) on EFO-27 human ovarian cancer cells (human); test: competition with [125I-Tyr8]BRU-2477 for binding to EFO-27 cells
[3] = target: LHRH receptor (LHRH binding sites) on EFO-27 human ovarian cancer cells (human); test: direct binding of 177Lu-labeled peptide to EFO-27 cells, single concentration

| Binder | EC50 [1] | EC50 [2] | % Bound [3] |
| --- | --- | --- | --- |
| XRWSHXWXP (as printed: Dnal2-R-W-S-H-Darg-W-Bpa4-P-Dabt14-DO3A10CM (C-terminal chelator)) [BRU-3042] | 200 nM | 200 nM |  |
| XRWSHXWXP (as printed: Sar-R-W-S-H-Darg-W-Bpa4-P-Da18o36oc-DO3A10CM (C-terminal chelator)) [BRU-3043] | 330 nM | 330 nM |  |
| XRWSHXWXP (as printed: Sar-R-W-S-H-Darg-W-Bpa4-P-bap14p-DO3A10CM (C-terminal chelator)) [BRU-3044] | 240 nM | 240 nM |  |
| XRWSHXWXP (as printed: Sar-R-W-S-H-Darg-W-Bpa4-P-Maz4dahp17-DO3A10CM (C-terminal chelator)) [BRU-3045] | 210 nM | 210 nM |  |
| B1 |  | 840 nM |  |
| XRWSHXWXP (as printed: Sar-R-W-S-H-Darg-W-Bpa4-P-Daprp13-DO3A10CM (C-terminal chelator)) [BRU-3076] |  | 750 nM |  |
| XHWSHXWXP (as printed: Sar-H-W-S-H-Darg-W-Bpa4-P-Dae-DO3A10CM (C-terminal chelator)) [BRU-3079] |  | 590 nM |  |
| XRWSHXWXP (as printed: Sar-R-W-S-H-Darg-W-Bpa4-P-Bampy26-DO3A10CM (C-terminal chelator)) [BRU-3080] | 230 nM | 230 nM |  |
| XRWSHXWXP (as printed: Sar-R-W-S-H-Darg-W-Bpa4-P-Dapt15-DO3A10CM (C-terminal chelator)) [BRU-3085] | 400 nM | 400 nM |  |
| XRWSHXWXP (as printed: Sar-R-W-S-H-Darg-W-Bpa4-P-Ampip2-DO3A10CM (C-terminal chelator)) [BRU-3102] | 200 nM | 200 nM |  |
| XRWSHXWXP (as printed: Sar-R-W-S-H-Darg-W-Bpa4-P-Dae-DO3A10CM (C-terminal chelator)) [BRU-3103] | 170 nM | 170 nM |  |
| XRWSHXWX (as printed: Sar-R-W-S-H-Darg-W-Bpa4-Am2prd-DO3A10CM (C-terminal chelator)) [BRU-3117] | 340 nM | 340 nM |  |
| B2 |  |  | 0.21% |
| B3 |  |  | 1.8% |
| B4 |  |  | 0.17% |
| B5 |  |  | 4.03% |
| B6 |  |  | 2.13% |
| B7 |  |  | 0.94% |
| B8 |  |  | 0.79% |
| B9 |  |  | 0.36% |
| B10 |  |  | 0.41% |
| B11 |  |  | 1.62% |
| B12 |  |  | 1.41% |
